Experimental data taken from patent US20240034757A1 (OXFORD UNIVERSITY INNOVATION, published 2024).

Tests used:
CCL5_HUMAN [1] = molecular target: T1, CCL5_HUMAN (human, UniProt P13501 24-91); assay: BLI, evasin on nickel sensor
T1 sequence: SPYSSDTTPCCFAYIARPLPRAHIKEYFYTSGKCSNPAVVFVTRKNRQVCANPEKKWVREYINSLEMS

CXCL8_HUMAN = molecular target: T2, CXCL8_HUMAN (human, UniProt P10145 28-99); assay: BLI, sensor already loaded with CCL5
T2 sequence: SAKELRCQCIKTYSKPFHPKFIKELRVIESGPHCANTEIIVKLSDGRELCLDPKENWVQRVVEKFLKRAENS

CXCL1_HUMAN = molecular target: T3, CXCL1_HUMAN (human, UniProt P09341 35-107); assay: BLI, sensor already loaded with CCL5
T3 sequence: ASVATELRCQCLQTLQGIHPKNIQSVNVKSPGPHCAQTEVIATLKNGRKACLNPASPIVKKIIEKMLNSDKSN

CCL8_HUMAN [2] = molecular target: T4, CCL8_HUMAN (human, UniProt P80075 24-99); assay: cell-based or functional assay
T4 sequence (looked up): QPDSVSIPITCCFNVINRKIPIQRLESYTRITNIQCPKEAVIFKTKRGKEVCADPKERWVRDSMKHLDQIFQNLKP

CCL5_HUMAN [3] = molecular target: T1, CCL5_HUMAN; assay: cell-based or functional assay
CCL7_HUMAN [4] = molecular target: T5, CCL7_HUMAN (human, UniProt P80098 24-99); assay: cell-based or functional assay
T5 sequence (P80098 24-99 limits assumed): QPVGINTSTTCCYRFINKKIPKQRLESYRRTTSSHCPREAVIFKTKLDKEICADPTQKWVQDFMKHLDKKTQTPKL

CCL3_HUMAN [5] = molecular target: T6, CCL3_HUMAN (human, UniProt P10147 24-92); assay: cell-based or functional assay
T6 sequence: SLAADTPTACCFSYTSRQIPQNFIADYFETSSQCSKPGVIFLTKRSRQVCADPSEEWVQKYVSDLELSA

CCL3L1_HUMAN [6] = molecular target: T7, CCL3L1_HUMAN (human, UniProt P16619 24-93); assay: cell-based or functional assay
T7 sequence: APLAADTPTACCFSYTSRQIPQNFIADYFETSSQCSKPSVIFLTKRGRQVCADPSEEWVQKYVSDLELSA

CCL2_HUMAN [7] = molecular target: T8, CCL2_HUMAN (human, UniProt P13500 24-99); assay: cell-based or functional assay
T8 sequence (P13500 24-99 limits assumed): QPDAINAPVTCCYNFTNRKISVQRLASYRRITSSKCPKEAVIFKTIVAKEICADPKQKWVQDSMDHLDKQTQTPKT

CCL8_HUMAN [8] = molecular target: T4, CCL8_HUMAN; assay: BLI
CCL5_HUMAN [9] = molecular target: T1, CCL5_HUMAN; assay: BLI
CCL17_HUMAN = molecular target: T9, CCL17_HUMAN (human, UniProt Q92583 24-94); assay: BLI
T9 sequence: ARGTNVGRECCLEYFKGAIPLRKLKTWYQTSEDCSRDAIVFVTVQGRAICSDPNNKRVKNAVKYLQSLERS

CCL7_HUMAN [10] = molecular target: T5, CCL7_HUMAN; assay: BLI
CCL4_HUMAN = molecular target: T10, CCL4_HUMAN (human, UniProt P13236 24-92); assay: BLI
T10 sequence: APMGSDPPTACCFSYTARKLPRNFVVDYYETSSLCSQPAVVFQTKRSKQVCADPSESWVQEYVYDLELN

CCL16_HUMAN = molecular target: T11, CCL16_HUMAN (human, UniProt O15467 24-120); assay: BLI
T11 sequence: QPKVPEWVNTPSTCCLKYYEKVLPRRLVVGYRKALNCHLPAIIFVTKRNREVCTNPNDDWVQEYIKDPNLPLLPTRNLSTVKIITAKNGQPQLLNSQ

CCL27_HUMAN = molecular target: T12, CCL27_HUMAN (human, UniProt Q9Y4X3 25-112); assay: BLI
T12 sequence: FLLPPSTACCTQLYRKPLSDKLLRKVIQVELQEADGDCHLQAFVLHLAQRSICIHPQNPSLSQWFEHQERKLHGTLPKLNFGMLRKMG

CCL3_HUMAN [11] = molecular target: T6, CCL3_HUMAN; assay: BLI
CCL3L1_HUMAN [12] = molecular target: T7, CCL3L1_HUMAN; assay: BLI
CCL15_HUMAN = molecular target: T13, CCL15_HUMAN (human, UniProt Q16663 22-113); assay: BLI
T13 sequence: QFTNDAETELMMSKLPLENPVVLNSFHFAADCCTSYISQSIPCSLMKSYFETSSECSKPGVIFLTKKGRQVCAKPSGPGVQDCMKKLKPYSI

CCL14_HUMAN = molecular target: T14, CCL14_HUMAN (human, UniProt Q16627 22-93); assay: BLI
T14 sequence: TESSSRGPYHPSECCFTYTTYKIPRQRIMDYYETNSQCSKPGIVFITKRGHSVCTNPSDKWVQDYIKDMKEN

CCL1_HUMAN = molecular target: T15, CCL1_HUMAN (human, UniProt P22362 24-96); assay: BLI
T15 sequence: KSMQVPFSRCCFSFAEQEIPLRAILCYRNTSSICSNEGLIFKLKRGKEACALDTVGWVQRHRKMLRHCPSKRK

CCL22_HUMAN = molecular target: T16, CCL22_HUMAN (human, UniProt O00626 25-93); assay: BLI
T16 sequence: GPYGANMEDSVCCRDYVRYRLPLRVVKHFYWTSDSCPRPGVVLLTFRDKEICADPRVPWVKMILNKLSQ

CCL21_HUMAN = molecular target: T17, CCL21_HUMAN (human, UniProt O00585 24-134); assay: BLI
T17 sequence: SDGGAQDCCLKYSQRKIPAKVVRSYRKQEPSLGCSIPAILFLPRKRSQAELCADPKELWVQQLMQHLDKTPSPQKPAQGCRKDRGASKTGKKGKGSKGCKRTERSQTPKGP

CCL13_HUMAN = CCL13_HUMAN (human, UniProt Q99616 24-98); assay: BLI
Sequence of CCL13_HUMAN (Q99616 24-98 limits assumed): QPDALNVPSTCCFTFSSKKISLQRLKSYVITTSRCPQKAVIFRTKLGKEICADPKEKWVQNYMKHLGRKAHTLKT

CCL11_HUMAN = CCL11_HUMAN (human, UniProt P51671 24-97); assay: BLI
Sequence of CCL11_HUMAN (P51671 24-97 limits assumed): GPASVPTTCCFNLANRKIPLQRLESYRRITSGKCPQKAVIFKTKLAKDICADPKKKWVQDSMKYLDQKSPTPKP

CCL18_HUMAN = molecular target: T18, CCL18_HUMAN (human, UniProt P55774 21-89); assay: BLI
T18 sequence: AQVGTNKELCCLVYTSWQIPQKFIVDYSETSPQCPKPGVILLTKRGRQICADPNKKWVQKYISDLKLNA

CCL4L1_HUMAN = molecular target: T19, CCL4L1_HUMAN (human, UniProt Q8NHW4 24-92); assay: BLI
T19 sequence: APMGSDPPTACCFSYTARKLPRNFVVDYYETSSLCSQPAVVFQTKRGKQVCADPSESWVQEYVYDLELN

CCL20_HUMAN = CCL20_HUMAN (human, UniProt P78556 27-96); assay: BLI
Sequence of CCL20_HUMAN (P78556 27-96 limits assumed): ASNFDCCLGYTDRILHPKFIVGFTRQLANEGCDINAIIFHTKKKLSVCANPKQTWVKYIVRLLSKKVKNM

CCL23_HUMAN = molecular target: T20, CCL23_HUMAN (human, UniProt P55773 22-120); assay: BLI
T20 sequence: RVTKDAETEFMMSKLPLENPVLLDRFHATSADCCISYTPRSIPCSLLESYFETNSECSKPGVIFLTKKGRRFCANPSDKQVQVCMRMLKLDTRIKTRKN

CCL2_HUMAN [13] = molecular target: T8, CCL2_HUMAN; assay: BLI
CCL19_HUMAN = molecular target: T21, CCL19_HUMAN (human, UniProt Q99731 22-98); assay: BLI
T21 sequence: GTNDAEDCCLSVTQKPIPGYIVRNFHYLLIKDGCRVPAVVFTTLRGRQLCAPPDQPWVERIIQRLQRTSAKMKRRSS

CCL24_HUMAN = molecular target: T22, CCL24_HUMAN (human, UniProt O00175 27-104); assay: BLI
T22 sequence: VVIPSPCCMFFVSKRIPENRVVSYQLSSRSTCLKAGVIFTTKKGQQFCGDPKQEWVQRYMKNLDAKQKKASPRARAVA

B1: P1156:G4S:P1243 (designed binder)
chain: ADDDNELFTVQYCGMNCTKDEGGTWTGCTGKKEGCKCYHESGKNYGLCLSTEYTDFSQYGNPSDSEIEAAKPKRSDTLSHGGGGSRNHTEDNSTEYYDYEEARCACPARHLNNTNGTVLKLLGCHYFCNGTLCTAPDGYPCYNLTAQQVRTLTTYPNTSCAVGVCMKGTCVKNGTMEQCFKTP
notes: also called two-warhead evasin
- binding result (CCL5_HUMAN [1]): binds
- binding result (CXCL8_HUMAN): binds
- binding result (CXCL1_HUMAN): binds

B2: P991_AMBCA (other)
chain: ENGEGTTQPDYDNSTDYYNYEDFKCTCPAPHLNNTNGTVMKPIGCYYTCNVTRCTAPDTYPCYNLTEHQAKNLTTSPTTLCAVGNCDHGICVPNGTKELCFKAPNLEE
- IC50, THP1 cell migration (CCL8_HUMAN [2]): 2.1 nM
- IC50, THP1 cell migration (CCL5_HUMAN [3]): 1.84 nM
- IC50, THP1 cell migration (CCL7_HUMAN [4]): 6.51 nM
- IC50, THP1 cell migration (CCL3_HUMAN [5]): 2.9 nM
- IC50, THP1 cell migration (CCL3L1_HUMAN [6]): 1.17 nM
- IC50, THP1 cell migration (CCL2_HUMAN [7]): 4.78 nM
- RT (CCL8_HUMAN [8]): 10.8 min
- RT (CCL5_HUMAN [9]): 113 min
- RT (CCL17_HUMAN): 10.3 min
- RT (CCL7_HUMAN [10]): 508 min
- RT (CCL4_HUMAN): 32.2 min
- RT (CCL16_HUMAN): 102 min
- RT (CCL27_HUMAN): 4.14 min
- RT (CCL3_HUMAN [11]): 42.6 min
- RT (CCL3L1_HUMAN [12]): 52 min
- RT (CCL15_HUMAN): 1.08 min
- RT (CCL14_HUMAN): 192 min
- RT (CCL1_HUMAN): 5.37 min
- RT (CCL22_HUMAN): 16.8 min
- RT (CCL21_HUMAN): 12.1 min
- RT (CCL13_HUMAN): 290 min
- RT (CCL11_HUMAN): 24.9 min
- RT (CCL18_HUMAN): 185 min
- RT (CCL4L1_HUMAN): 42.8 min
- RT (CCL20_HUMAN): 7.03 min
- RT (CCL23_HUMAN): 32.3 min
- RT (CCL2_HUMAN [13]): 4.17 min
- RT (CCL19_HUMAN): 7 min
- RT (CCL24_HUMAN): 7.07 min
